Paper PMC9007743

Molecular target: rhodopsin (bovine (endogenous in bovine retina)) (UniProt P02699)
Sequence (P02699 whole entry): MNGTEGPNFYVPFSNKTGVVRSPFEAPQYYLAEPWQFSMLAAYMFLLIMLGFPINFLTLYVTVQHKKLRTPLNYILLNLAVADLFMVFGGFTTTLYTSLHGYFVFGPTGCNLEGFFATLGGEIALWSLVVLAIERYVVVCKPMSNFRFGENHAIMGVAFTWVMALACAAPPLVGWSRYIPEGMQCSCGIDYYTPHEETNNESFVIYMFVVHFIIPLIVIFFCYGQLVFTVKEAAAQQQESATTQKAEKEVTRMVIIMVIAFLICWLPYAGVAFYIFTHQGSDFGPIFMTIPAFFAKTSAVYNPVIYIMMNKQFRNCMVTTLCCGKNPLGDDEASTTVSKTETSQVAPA

Sequence of transducin, heterotrimeric G protein (Gt) (P04695 whole entry): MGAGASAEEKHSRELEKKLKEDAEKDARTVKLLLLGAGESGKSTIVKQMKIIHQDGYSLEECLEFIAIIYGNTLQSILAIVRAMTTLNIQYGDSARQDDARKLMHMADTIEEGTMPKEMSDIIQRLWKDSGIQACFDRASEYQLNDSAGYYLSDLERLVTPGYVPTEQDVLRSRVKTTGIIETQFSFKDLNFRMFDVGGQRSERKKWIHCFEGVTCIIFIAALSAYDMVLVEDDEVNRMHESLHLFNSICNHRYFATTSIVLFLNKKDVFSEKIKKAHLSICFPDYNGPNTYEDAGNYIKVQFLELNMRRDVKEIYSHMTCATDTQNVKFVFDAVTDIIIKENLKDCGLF
Sequence of transducin, heterotrimeric G protein (Gt) (P62871 whole entry): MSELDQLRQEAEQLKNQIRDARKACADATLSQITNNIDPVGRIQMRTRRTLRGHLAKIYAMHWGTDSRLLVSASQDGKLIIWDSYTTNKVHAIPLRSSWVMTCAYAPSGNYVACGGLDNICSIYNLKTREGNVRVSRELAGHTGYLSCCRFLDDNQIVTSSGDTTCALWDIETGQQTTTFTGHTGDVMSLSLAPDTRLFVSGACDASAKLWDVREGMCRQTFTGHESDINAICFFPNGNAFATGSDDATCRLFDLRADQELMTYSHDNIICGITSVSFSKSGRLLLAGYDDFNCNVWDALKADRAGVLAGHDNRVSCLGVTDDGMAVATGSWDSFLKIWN
Sequence of transducin, heterotrimeric G protein (Gt) (P02698 whole entry): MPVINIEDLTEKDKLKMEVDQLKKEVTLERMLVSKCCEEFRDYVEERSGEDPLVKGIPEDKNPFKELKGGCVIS

ratio Gt•GDP:Gt by native MS with 90 μM compound 1, ROS membrane present, from dark (1.2) to 15 s of illumination (0.6) (ratio Gt•GDP:Gt): 1.2
ratio Gt•GDP:Gt by native MS with 90 μM compound 6, ROS membrane present, from dark (2.0) to 15 s of illumination (0.8) (ratio Gt•GDP:Gt): 2
ratio Gt•GDP:Gt by native MS, control without compound, ROS membrane present, from dark (4.1) to 15 s of illumination (1.2) (ratio Gt•GDP:Gt): 4.1
Substance: transducin, heterotrimeric G protein (Gt) (from UniProt P04695 1-350; P62871 1-340; P02698 1-74) (complex)
